Measurements as given in article PMC3029384, “Dimeric SecA Couples the Preprotein Translocation in an Asymmetric Manner” (PLoS ONE, 2011).

B1: His6-tagged SecB (natural protein, Escherichia coli)
chain: MSEQNNTEMTFQIQRIYTKDISFEAPNAPHVFQKDWQPEVKLDLDTASSQLADDVYEVVLRVTVTASLGEETAFLCEVQQGGIFSIAGIEGTQMAHCLGAYCPNILFPYARECITSMVSRGTFPQLNLAPVNFDALFMNYLQQQAGEGTEEHQ
notes: SecB chaperone, Escherichia coli; The tag is named explicitly only in Materials and for the SecB/proOmpA assembly; also called SecB tetramer; tetrameric SecB

Columns and labels:
SecA (Escherichia coli) = SecA (Escherichia coli) (UniProt P10408); conditions: cited from earlier work
[1] = molecular target: the molecule itself; assay: SEC; SecA monomer 3 uM and SecB monomer 30 uM incubated 1 h at 4 °C in buffer A (20 mM HEPES-KOH, 30 mM KCl, 1 mM DTT, pH 7.4); Superdex G200 analytical column at 4 °C; peak fraction checked by SDS-PAGE
His6-tagged SecB = molecular target: B1; assay: SEC; SecA monomer 3 uM and preformed SecB/proOmpA 2 uM incubated 1 h at 4 °C in buffer A (20 mM HEPES-KOH, 30 mM KCl, 1 mM DTT, pH 7.4); Superdex G200 analytical column at 4 °C; fractions checked by SDS-PAGE; conditions: both partners purified

Molecule: SecA (from UniProt P10408)
- Kd (SecA (Escherichia coli)): 1000 nM

Molecule: B1
- stoichiometry N [1]: 4

B2: proOmpA (natural protein, Escherichia coli, UniProt P0A910 1-346, looked up)
chain: MKKTAIAIAVALAGFATVAQAAPKDNTWYTGAKLGWSQYHDTGFINNNGPTHENQLGAGAFGGYQVNPYVGFEMGYDWLGRMPYKGSVENGAYKAQGVQLTAKLGYPITDDLDIYTRLGGMVWRADTKSNVYGKNHDTGVSPVFAGGVEYAITPEIATRLEYQWTNNIGDAHTIGTRPDNGMLSLGVSYRFGQGEAAPVVAPAPAPAPEVQTKHFTLKSDVLFNFNKATLKPEGQAALDQLYSQLSNLDPKDGSVVVLGYTDRIGSDAYNQGLSERRAQSVVDYLISKGIPADKISARGMGESNPVTGNTCDNVKQRAALIDCLAPDRRVEIEVKGIKDVVTQPQA
notes: Precursor form (unfolded, diluted out of 6 M urea); also called preprotein; source: kept in 6 M urea before dilution
- stoichiometry N (His6-tagged SecB): 1 proOmpA per SecB tetramer
